Like-named read-outs stand apart in the source and are kept apart here. Non-standard residues stand in square brackets, D forms with d. No end group written: not given here. Aib = CC(C)(N)C(=O)O
What was measured:
Assay in all cases: cell-based or functional assay
glucagon receptor [1] = target: T1, glucagon receptor (human, UniProt P47871 26-477)
GLP-1 receptor [2] = target: T2, GLP-1 receptor (human, UniProt P43220 24-463)
glucagon receptor [3] = target: T1, glucagon receptor; remark: listed apart in the source
GLP-1 receptor [4] = target: T2, GLP-1 receptor; remark: listed apart in the source
glucagon receptor [5] = target: T1, glucagon receptor; remark: listed apart in the source
GLP-1 receptor [6] = target: T2, GLP-1 receptor; remark: listed apart in the source
glucagon receptor [7] = target: T1, glucagon receptor; remark: listed apart in the source
GLP-1 receptor [8] = target: T2, GLP-1 receptor; remark: listed apart in the source
glucagon receptor [9] = target: T1, glucagon receptor; remark: listed apart in the source
GLP-1 receptor [10] = target: T2, GLP-1 receptor; remark: listed apart in the source
Target sequence in this assay (P43220 24-463): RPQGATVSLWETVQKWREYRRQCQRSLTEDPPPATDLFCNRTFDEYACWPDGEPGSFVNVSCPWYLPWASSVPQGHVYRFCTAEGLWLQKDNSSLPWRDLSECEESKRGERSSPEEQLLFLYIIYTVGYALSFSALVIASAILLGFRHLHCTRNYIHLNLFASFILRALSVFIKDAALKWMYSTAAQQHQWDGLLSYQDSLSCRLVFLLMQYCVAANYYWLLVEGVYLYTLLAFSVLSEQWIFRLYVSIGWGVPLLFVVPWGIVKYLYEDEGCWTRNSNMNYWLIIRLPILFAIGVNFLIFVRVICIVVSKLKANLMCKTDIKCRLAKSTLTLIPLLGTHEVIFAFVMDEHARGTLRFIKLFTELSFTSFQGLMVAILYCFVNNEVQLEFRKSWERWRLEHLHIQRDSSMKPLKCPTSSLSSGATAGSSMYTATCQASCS

glucagon receptor [11] = target: T1, glucagon receptor; remark: listed apart in the source
GLP-1 receptor [12] = target: T2, GLP-1 receptor; remark: listed apart in the source

T1 sequence (P47871 26-477): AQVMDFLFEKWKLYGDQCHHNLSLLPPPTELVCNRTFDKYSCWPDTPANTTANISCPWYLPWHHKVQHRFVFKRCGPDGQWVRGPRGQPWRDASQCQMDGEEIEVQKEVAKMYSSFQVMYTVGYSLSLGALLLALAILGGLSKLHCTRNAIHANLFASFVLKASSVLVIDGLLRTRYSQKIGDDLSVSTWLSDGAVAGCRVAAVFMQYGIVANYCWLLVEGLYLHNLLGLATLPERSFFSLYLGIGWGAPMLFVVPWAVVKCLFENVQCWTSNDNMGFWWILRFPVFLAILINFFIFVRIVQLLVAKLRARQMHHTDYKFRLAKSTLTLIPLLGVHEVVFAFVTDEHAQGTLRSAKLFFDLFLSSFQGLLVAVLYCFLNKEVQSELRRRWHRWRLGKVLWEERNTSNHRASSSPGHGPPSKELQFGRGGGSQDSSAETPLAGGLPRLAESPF

## HSQGTFTSDYSKYLDEKRAKEFVQWLMNT-NH2 (not fully specified; also: further groups not given here) [Glucagon Analog 65]
Glucagon receptor [1]
  % Relative Activity vs native glucagon: 264%
  EC50 (cAMP luciferase reporter): 0.053 nM
GLP-1 receptor [2]
  % Relative Activity vs native GLP-1: 64%
  EC50 (cAMP luciferase reporter): 0.036 nM

## HSQGTFTSDKSKYLDEQAAKEFICWLLDTG (not fully specified) [Glucagon Analog 55]
Glucagon receptor [3]
  % Relative Activity vs native glucagon: 7%
  EC50 (cAMP luciferase reporter): 0.55 nM
GLP-1 receptor [4]
  % Relative Activity vs native GLP-1: 16%
  EC50 (cAMP luciferase reporter): 0.516 nM

## HSQGTFTSDYSKYLDEKRAKEFVCWLLDGGPSSGAPPPS-NH2 (not fully specified; also: further groups not given here) [Glucagon Analog 61]
Glucagon receptor [1]
  % Relative Activity vs native glucagon: 88%
  EC50 (cAMP luciferase reporter): 0.017 nM
GLP-1 receptor [2]
  % Relative Activity vs native GLP-1: 39%
  EC50 (cAMP luciferase reporter): 0.096 nM

## KAHSEGTFTSDYSKYLDSRRAQDFVQWLMNT (not fully specified; also: further groups not given here) [Peptide 12]
Glucagon receptor [5]
  EC50 (cAMP luciferase reporter): 85.9 nM
GLP-1 receptor [6]
  EC50 (cAMP luciferase reporter): 41.7 nM

## KAHSEGTFTSDYSKYLDSRRAQDFVQWLMNT (not fully specified; also: further groups not given here) [Peptide 13]
Glucagon receptor [5]
  EC50 (cAMP luciferase reporter): 30.7 nM
GLP-1 receptor [6]
  EC50 (cAMP luciferase reporter): 14.3 nM

## HSQGTFTSDYSKYLDSKRAQEFVQWLMNT-NH2 (also: non-coded residues and acylation only) [Glucagon Analog 66]
GLP-1 receptor [2]
  EC50 (cAMP luciferase reporter): 0.13 nM

## HSQGTFTSDKSKYLDEQAAKEFICWLLDTGG (not fully specified) [Glucagon Analog 56]
Glucagon receptor [3]
  % Relative Activity vs native glucagon: 272%
  EC50 (cAMP luciferase reporter): 0.018 nM
GLP-1 receptor [4]
  % Relative Activity vs native GLP-1: 125%
  EC50 (cAMP luciferase reporter): 0.068 nM

## HSQGTFTSDYSKYLDERRAKEFVQWLMNT-NH2 (not fully specified; also: further groups not given here) [Glucagon Analog 68]
Glucagon receptor [1]
  % Relative Activity vs native glucagon: 104%
  EC50 (cAMP luciferase reporter): 0.068 nM
GLP-1 receptor [2]
  % Relative Activity vs native GLP-1: 44%
  EC50 (cAMP luciferase reporter): 0.075 nM

## HSQGTFTSDKSKYLDEQAAKEFICWLLDE-NH2 (not fully specified; also: further groups not given here) [Glucagon Analog 82]
Glucagon receptor [7]
  % Relative Activity vs native glucagon: 121%
  EC50 (cAMP luciferase reporter): 14000 nM
GLP-1 receptor [8]
  % Relative Activity vs native GLP-1: 345%
  EC50 (cAMP luciferase reporter): 0.02 nM

B1: Peptide 14 (peptide)
peptide: KHSQETFTSDYSKYLDSRRAQDFVQWLMNT
modifications: not fully specified; amidated unless FIG. 1 shows OH; lactam, D-residues, Orn/Dab only as drawn in FIG. 1
GLP-1 receptor [6]
  EC50 (cAMP luciferase reporter): 33 nM

## HAQGTFTSDKSKYLDERAAQDFVCWLLDT (not fully specified (C-terminus)) [Glucagon Analog 59]
Glucagon receptor [9]
  % Relative Activity vs native glucagon: 490%
  EC50 (cAMP luciferase reporter): 0.01 nM
GLP-1 receptor [10]
  % Relative Activity vs native GLP-1: 484%
  EC50 (cAMP luciferase reporter): 0.019 nM

## HSQGTFTSDYSKYLD[Aib]KAVRLFICWLLDT-NH2 [Glucagon Analog 86]
Glucagon receptor [11]
  EC50 (cAMP luciferase reporter): 0.035 nM
  percent in parentheses (not explained): 43%
GLP-1 receptor [12]
  EC50 (cAMP luciferase reporter): 0.035 nM
  percent in parentheses (not explained): 106%

## HSQGTFTSDYSKYLDERRAKDFVQWLMNT-NH2 (not fully specified; also: further groups not given here) [Glucagon Analog 67]
Glucagon receptor [1]
  % Relative Activity vs native glucagon: 93%
  EC50 (cAMP luciferase reporter): 0.077 nM
GLP-1 receptor [2]
  % Relative Activity vs native GLP-1: 47%
  EC50 (cAMP luciferase reporter): 0.071 nM

## HSQGTFTSDKSKYLDEQAAKEFICWLLDT (also: DPP-IV-resistant residue at position 1 or 2, not given here) [Glucagon Analog 57]
Glucagon receptor [3]
  % Relative Activity vs native glucagon: 1%
  EC50 (cAMP luciferase reporter): 4.8 nM

From patent publication US20120288511A1 (INDIANA UNIVERSITY RESEARCH AND TECHNOLOGY, published 2012)
